Experimental findings from patent publication US20200016237A1 are described below.

The target of assay [1] is Alkaline Phosphatase-tagged extracellular domains of Neogenin (Ec-Neogenin-AP). Put plainly: plate competition binding assay, His-tagged protein coated, AP-tagged protein detected with pNPP at 405 nm; sRGMa pre-incubated with Ec-Neogenin-AP.
The target in assay [2] is Neogenin on murine brain-derived endothelial cells (b.end3) (mouse) (UniProt P97798). Put plainly: cell-based or functional assay.
Sequence of Neogenin on murine brain-derived endothelial cells (b.end3) (mouse) (P97798 37-1492): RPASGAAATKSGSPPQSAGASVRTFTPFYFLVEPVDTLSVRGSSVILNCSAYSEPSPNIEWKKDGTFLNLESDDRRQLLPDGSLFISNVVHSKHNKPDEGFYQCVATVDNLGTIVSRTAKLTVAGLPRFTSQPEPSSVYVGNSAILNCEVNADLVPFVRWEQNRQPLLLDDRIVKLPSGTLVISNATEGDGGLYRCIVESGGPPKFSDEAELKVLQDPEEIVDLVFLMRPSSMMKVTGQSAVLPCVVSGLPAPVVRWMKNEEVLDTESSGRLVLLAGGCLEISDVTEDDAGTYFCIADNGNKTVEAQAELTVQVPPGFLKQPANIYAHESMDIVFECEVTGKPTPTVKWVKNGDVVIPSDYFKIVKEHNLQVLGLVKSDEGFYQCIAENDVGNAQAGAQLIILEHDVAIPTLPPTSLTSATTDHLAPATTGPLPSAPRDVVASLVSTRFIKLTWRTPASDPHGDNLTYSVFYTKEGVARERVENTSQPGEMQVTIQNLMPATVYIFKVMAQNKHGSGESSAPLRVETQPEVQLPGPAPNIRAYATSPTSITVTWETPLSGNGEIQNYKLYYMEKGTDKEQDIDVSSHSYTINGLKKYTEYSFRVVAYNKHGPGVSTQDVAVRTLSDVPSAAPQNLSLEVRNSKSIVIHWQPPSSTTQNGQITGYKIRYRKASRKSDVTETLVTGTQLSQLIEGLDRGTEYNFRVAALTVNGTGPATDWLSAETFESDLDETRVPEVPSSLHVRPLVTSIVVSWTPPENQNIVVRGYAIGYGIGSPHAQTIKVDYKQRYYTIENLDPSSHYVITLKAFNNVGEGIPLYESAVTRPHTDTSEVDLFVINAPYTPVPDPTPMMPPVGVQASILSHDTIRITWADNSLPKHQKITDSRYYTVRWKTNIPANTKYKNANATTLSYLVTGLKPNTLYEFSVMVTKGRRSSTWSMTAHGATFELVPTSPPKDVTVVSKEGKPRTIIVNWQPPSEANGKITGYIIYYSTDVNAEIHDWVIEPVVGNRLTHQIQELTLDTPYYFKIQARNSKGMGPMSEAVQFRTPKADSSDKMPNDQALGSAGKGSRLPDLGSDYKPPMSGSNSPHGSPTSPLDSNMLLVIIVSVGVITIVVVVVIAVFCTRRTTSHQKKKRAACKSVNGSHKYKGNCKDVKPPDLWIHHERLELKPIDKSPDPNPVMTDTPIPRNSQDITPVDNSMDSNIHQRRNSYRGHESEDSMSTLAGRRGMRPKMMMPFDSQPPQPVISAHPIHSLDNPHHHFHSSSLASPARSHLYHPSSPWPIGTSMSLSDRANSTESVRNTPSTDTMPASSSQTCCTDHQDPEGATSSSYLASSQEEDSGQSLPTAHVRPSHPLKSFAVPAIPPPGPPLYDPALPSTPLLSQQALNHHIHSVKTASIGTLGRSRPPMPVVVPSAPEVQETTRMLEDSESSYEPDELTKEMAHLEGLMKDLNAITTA

Consider “soluble RGMa (sRGMa), mouse, His tag replacing the GPI anchor (from UniProt Q6PCX7 170-427) (ligand)”, for which, in assay [1], the fold reduction of binding intensity of RGMc to Neogenin against BSA control was found to be 3 fold. The fold decrease in Claudin 5 levels in b.End3 cells (Western blot) in assay [2] was 2 fold.
